According to patent publication US20070243571A1, “Method for Measurement of Activity of Homocysteinethiolactone Hydrolyzing Enzyme” (priority 2004, published 2007):
Where two headings read alike, the source gives them in different places.

Experiments:
[1] = Autolysis of the substrate in reagent-blank (purified water as sample); assay type: physicochemical; settings: HTL, MOPS buffer pH 7.8, purified water as sample
Experimental: (§1) Following the above parameters, purified water, 15 μl of a sample and 200 μl of reagent 1(A) or 1(B) or 1(C) or 1(D) was dispensed and mixed, and, after a certain length of time at a constant temperature (37° C., 5 min), 50 μl of reagent 2 was added and mixed to allow reaction to start. When reagent 2 was added to the mixture of the fraction containing serum, plasma, albumin or HDL and reagent 1(A), 1(C) or 1(D), increase in absorbance was detected which was due to the reaction of the SH-group detection reagent with DL-homocysteine, which has a free SH group, formed by hydrolysis of HTL.
As evident from FIG. 2, increase in absorbance is suppressed when calcium ion is blocked by EDTA.
as §1, with “parameters,” for “parameters, purified water,”, “cholinesterase” for “albumin”, “1(A),” for “1(A), 1(C) or 1(D),”, “4-mercaptobutyric acid,” for “DL-homocysteine,”, “by” for “by hydrolysis”, “HTL hydrolyzing enzyme.” for “HTL.”
As evident from FIG. 4, increase in absorbance is suppressed when calcium ion is not present. […]

[2] = target: T1, Human butyrylcholinesterase (Homo sapiens, UniProt P06276); assay: Hydrolysis of substrate by purified human cholinesterase; assay type: biochemical; settings: 2.0 U/ml human butyrylcholinesterase solution as sample
T1 construct: purchased Boehringer 348643
Experimental: Human butyrylcholinesterase (348643, Boehringer) was dissolved in purified water to prepare a 2.0 U/ml solution.
as §1
as §1, with “parameters,” for “parameters, purified water,”, “cholinesterase” for “albumin”, “1(A),” for “1(A), 1(C) or 1(D),”, “4-mercaptobutyric acid,” for “DL-homocysteine,”, “by” for “by hydrolysis”, “HTL hydrolyzing enzyme.” for “HTL.”

[3] = target: cholinesterase (Homo sapiens, UniProt P06276); settings: Nescoat ChE V-2 according to the package insert
Experimental: Cholinesterase activity was measured with the above-mentioned samples and unprepared serum. Measurement of cholinesterase activity was carried out using Nescoat ChE V-2 (Alfresa Pharma Coporation) according to the package insert.

[4] = tested on: HTL hydrolyzing enzyme; assay: Measurement of hydrolyzing enzyme activity for HTL (DTNB rate assay, H-7170 analyzer); assay type: biochemical, human; settings: substrate DL-HTL
Experimental: Hydrolyzing enzyme activity for HTL was measured with purified water and above-mentioned samples.
Reagent 1(A): SH-group detection solution; 0.2 M MOPS buffer containing 0.5 mM CaCl2 and 1.0 mM DTNB (pH 7.8).
Reagent 1(B): SH-group detection solution; 0.2 M MOPS buffer containing 2 mM EDTA and 1.0 mM DTNB (pH 7.8).
Reagent 1(C): SH-group detection solution; 0.2 M MOPS buffer containing 0.5 mM CaCl2, 0.1 mM physostigmine sulfate and 1.0 mM DTNB (pH 7.8).
Reagent 1(D): SH-group detection solution; 0.2 M MOPS buffer containing 0.5 mM CaCl2, 0.1 mM neostigmine bromide and 1.0 mM DTNB (pH 7.8).
Reagent 2: substrate solution; aqueous solution containing 125 mM DL-HTL (Tokyo Chemical Industry Co., Ltd).
For measurement of HTL hydrolyzing enzyme activity, H-7170 automatic analyzer (Hitachi, Ltd.) was used. Parameters for measurement were as follows.
Following the above parameters, purified water, 15 μl of a sample and 200 μl of reagent 1(A) or 1(B) or 1(C) or 1(D) was dispensed and mixed, and, after a certain length of time at a constant temperature (37° C., 5 min), 50 μl of reagent 2 was added and mixed to allow reaction to start.
(§2) The activity value of HTL hydrolyzing enzyme in each sample was calculated based on: the change in absorbance per unit of time (1 min) (ΔE) from 2-minute up to 4-minute time points after the addition of the substrate (reagent 2), the molecular extinction coefficient of 5-thio-2-nitrobenzoic acid at the wavelength of 480 nm, ε=2509, and the molecular extinction coefficient of the compound at the wavelength of 546 nm, ε=78.

[5] = tested on: HTL hydrolyzing enzyme; assay: Measurement of hydrolyzing enzyme activity for TBL (DTNB rate assay, H-7170 analyzer); assay type: biochemical, human; settings: substrate TBL
Experimental: Hydrolyzing enzyme activity for TBL was measured with above-mentioned samples and unprepared serum.
Reagent 1(A): SH-group detection solution; 0.2 M MOPS buffer containing 0.5 mM CaCl2 and 1.0 mM DTNB (pH 7.2).
Reagent 1(B): SH-group detection solution; 0.2 M MOPS buffer containing 2 mM EDTA and 1.0 mM DTNB (pH 7.2).
Reagent 1(C): SH-group detection solution; 0.2 M MOPS buffer containing 0.5 mM CaCl2, 0.1 mM physostigmine sulfate and 1.0 mM DTNB (pH 7.2).
Reagent 1(D): SH-group detection solution; 0.2 M MOPS buffer containing 0.5 mM CaCl2, 0.1 mM neostigmine bromide and 1.0 mM DTNB (pH 7.2).
Reagent 2: substrate solution; aqueous solution containing 125 mM TBL (Aldrich).
For measurement of hydrolyzing enzyme activity TBL, H-7170 automatic analyzer (Hitachi, Ltd.) was used. Parameters for measurement were as follows.
Following the above parameters, 15 μl of a sample and 200 μl of reagent 1(A) or 1(B) or 1(C) or 1(D) was dispensed and mixed, and, after a certain length of time at a constant temperature (37° C., 5 min), 50 μl of reagent 2 was added and mixed to allow reaction to start.
as §2, with “enzyme for TBL” for “enzyme”

## NC1CCSC1=O (stereo not drawn) [HTL, homocysteinethiolactone]
[1]
  stability of substrate in the reaction solution (autolysis, increase in absorbance of reagent-blank): unstable in the reaction solution
[2]
  hydrolysis by purified human cholinesterase: not hydrolyzed

B1: Cholinesterase: Human butyrylcholinesterase (348643, Boehringer) dissolved in purified water, 2.0 U/ml solution (protein, UniProt P06276 29-602, looked up)
Cholinesterase: EDDIIIATKNGKVRGMNLTVFGGTVTAFLGIPYAQPPLGRLRFKKPQSLTKWSDIWNATKYANSCCQNIDQSFPGFHGSEMWNPNTDLSEDCLYLNVWIPAPKPKNATVLIWIYGGGFQTGTSSLHVYDGKFLARVERVIVVSMNYRVGALGFLALPGNPEAPGNMGLFDQQLALQWVQKNIAAFGGNPKSVTLFGESAGAASVSLHLLSPGSHSLFTRAILQSGSFNAPWAVTSLYEARNRTLNLAKLTGCSRENETEIIKCLRNKDPQEILLNEAFVVPYGTPLSVNFGPTVDGDFLTDMPDILLELGQFKKTQILVGVNKDEGTAFLVYGAPGFSKDNNSIITRKEFQEGLKIFFPGVSEFGKESILFHYTDWVDDQRPENYREALGDVVGDYNFICPALEFTKKFSEWGNNAFFYYFEHRSSKLPWPEWMGVMHGYEIEFVFGLPLERRDNYTKAEEILSRSIVKRWANFAKYGNPNETQNNSTSWPVFKSTEQKYLTLNTESTRIMTKLRAQQCRFWTSFFPKVLEMTGNIDEAEWEWKAGFHRWNNYMMDWKNQFNDYTSKKESCVGL
[3]
  Cholinesterase activity: 15392
[3]; listed as human cholinesterase
  Cholinesterase activity: observed
[4]; Reagent 1(A): 0.5 mM CaCl2, pH 7.8, 37° C., no inhibitor
  activity value of HTL hydrolyzing enzyme, No addition: 8
[4]; Reagent 1(B): 2 mM EDTA, pH 7.8, 37° C.
  activity value of HTL hydrolyzing enzyme, EDTA.2Na: 6
[4]; Reagent 1(C): 0.5 mM CaCl2, 0.1 mM physostigmine sulfate, pH 7.8, 37° C.
  activity value of HTL hydrolyzing enzyme, Physostigmine sulfate: −1
[4]; Reagent 1(D): 0.5 mM CaCl2, 0.1 mM neostigmine bromide, pH 7.8, 37° C.
  activity value of HTL hydrolyzing enzyme, Neostigmine bromide: −2
[5]; Reagent 1(A): 0.5 mM CaCl2, pH 7.2, 37° C., no inhibitor
  activity value of HTL hydrolyzing enzyme for TBL, No addition: 403
[5]; Reagent 1(B): 2 mM EDTA, pH 7.2, 37° C.
  activity value of HTL hydrolyzing enzyme for TBL, EDTA.2Na: 399
[5]; Reagent 1(C): 0.5 mM CaCl2, 0.1 mM physostigmine sulfate, pH 7.2, 37° C.
  activity value of HTL hydrolyzing enzyme for TBL, Physostigmine sulfate: 1
[5]; Reagent 1(D): 0.5 mM CaCl2, 0.1 mM neostigmine bromide, pH 7.2, 37° C.
  activity value of HTL hydrolyzing enzyme for TBL, Neostigmine bromide: 2
